# Experimental data published in PMC2268108.
# B1: KcsA K+ channel, wild type, P0A334 1-160 (natural protein)
# chain: MPPMLSGLLARLVKLLLGRHGSALHWRAAGAATVLLVIVLLAGSYLAVLAERGAPGAQLITYPRALWWSVETATTVGYGDLYPVTLWGRLVAVVVMVAGITSFGLVTAALATWFVGREQERRGHFVRHSEKAAEEAYTRTTRALHERFDRLERMLDDNRR
# Target: T1, KcsA K+ channel, wild type, P0A334
# T1 chain: B1 chain
# Assay: SDS-PAGE of the tetramer
# Conditions: remark: other sources report otherwise
binder,measurement,value
B1,stoichiometry N,4
